In article PMC12122940 one finds methylation of the soluble peptide (2.5 µM peptide, 50 nM enzyme, radioactively labeled AdoMet, autoradiography); ratio of the initial methylation rates H3K4/H3K36 (fold (against the H3K36 26-44 peptide)) data, which are given here for one substance.

In the test the target is H3 1–19 peptide.

Chain of PRDM9 (195–415) (Q9NQV7 195-415): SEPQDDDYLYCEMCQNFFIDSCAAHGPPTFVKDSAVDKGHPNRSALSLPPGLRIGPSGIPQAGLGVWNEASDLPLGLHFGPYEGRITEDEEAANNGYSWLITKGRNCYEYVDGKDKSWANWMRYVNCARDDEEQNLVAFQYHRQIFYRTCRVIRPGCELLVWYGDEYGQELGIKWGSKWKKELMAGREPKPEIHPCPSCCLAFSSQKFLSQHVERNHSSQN

For the substance “PRDM9 (195–415) (from UniProt Q9NQV7 195-415) (enzyme)”, the methylation of the soluble peptide (2.5 µM peptide, 50 nM enzyme, radioactively labeled AdoMet, autoradiography); ratio of the initial methylation rates H3K4/H3K36 (fold (against the H3K36 26-44 peptide)) amounted to 5.2.
